Source: patent US20130136735A1 (NKT THERAPEUTICS, published 2013)

Columns and labels:
[1] = biological target: T1, recombinant soluble human iTCR (Hu-siTCR) (human); experiment: SPR (BIAcore)
T1 construct: Bought recombinant soluble heterodimer, coated on nickel (HIS-Select) plates; also called recombinant TCR heterodimer (Precision Antibody); purified TCR heterodimer

[2] = biological target: T1, recombinant soluble human iTCR …; experiment: ELISA using Hu-siTCR
human FcγRI [3] = biological target: T2, human FcγRI (human, UniProt P12314 16-288, limits assumed); experiment: summary of Example 2
T2 sequence (P12314 16-288 limits assumed): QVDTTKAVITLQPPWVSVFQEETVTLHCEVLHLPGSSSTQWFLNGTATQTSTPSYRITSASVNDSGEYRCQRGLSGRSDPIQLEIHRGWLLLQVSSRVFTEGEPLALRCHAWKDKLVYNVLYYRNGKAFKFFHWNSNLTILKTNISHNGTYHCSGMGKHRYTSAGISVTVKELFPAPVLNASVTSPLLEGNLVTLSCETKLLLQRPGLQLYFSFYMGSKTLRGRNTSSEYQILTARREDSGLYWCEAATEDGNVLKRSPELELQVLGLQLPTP

[4] = biological target: T1, recombinant soluble human iTCR …; experiment: competition ELISA on plate-bound recombinant TCR heterodimer; competitor biotinylated chimeric 6B11 IgG1; IC50 of test divided by IC50 of reference
human FcγRI [5] = biological target: T2, human FcγRI; experiment: ELISA / BIAcore, not said which
human FcγRI [6] = biological target: T2, human FcγRI; experiment: ELISA
complement component C1q = complement component C1q (human, UniProt P02745 23-245; P02746 28-253; P02747 29-245); experiment: ELISA
complement component C1q, sequence (P02745 23-245 limits assumed, chain 1 of 3): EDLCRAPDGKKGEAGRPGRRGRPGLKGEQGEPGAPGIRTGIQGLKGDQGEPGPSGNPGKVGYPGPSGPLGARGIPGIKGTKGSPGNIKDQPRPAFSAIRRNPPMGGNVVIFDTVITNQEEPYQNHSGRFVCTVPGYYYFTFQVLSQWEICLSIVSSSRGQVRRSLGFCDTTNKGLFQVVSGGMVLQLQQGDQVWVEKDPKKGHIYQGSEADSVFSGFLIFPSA
complement component C1q, sequence (P02746 28-253 limits assumed, chain 2 of 3): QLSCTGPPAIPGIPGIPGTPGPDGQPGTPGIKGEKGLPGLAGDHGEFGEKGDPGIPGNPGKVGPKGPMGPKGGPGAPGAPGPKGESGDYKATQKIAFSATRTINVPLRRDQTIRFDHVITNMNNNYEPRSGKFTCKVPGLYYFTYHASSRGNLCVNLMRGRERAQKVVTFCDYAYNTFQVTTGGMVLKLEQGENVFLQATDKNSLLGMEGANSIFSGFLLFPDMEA
complement component C1q, sequence (P02747 29-245 limits assumed, chain 3 of 3): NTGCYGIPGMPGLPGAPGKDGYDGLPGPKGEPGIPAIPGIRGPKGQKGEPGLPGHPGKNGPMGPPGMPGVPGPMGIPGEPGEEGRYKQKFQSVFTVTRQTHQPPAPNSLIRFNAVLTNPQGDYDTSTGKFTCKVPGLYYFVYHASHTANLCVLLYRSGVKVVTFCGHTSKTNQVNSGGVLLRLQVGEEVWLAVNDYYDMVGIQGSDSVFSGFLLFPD

FcγRIII = biological target: T3, FcγRIII (human); experiment: in vitro binding experiments, afucosylated against fucosylated IgG1; reference not named
T3 construct: also called Fc-gamma-RIII
T3 sequence (P08637 17-208): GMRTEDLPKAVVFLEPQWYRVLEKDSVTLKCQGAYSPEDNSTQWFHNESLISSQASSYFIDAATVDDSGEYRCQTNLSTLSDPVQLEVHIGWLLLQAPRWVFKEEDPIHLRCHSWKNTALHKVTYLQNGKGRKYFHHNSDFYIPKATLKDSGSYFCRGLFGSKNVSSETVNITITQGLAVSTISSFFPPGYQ

B1: NKTT120 (antibody, human IgG1, kappa)
heavy: not shown
light: DIQMTQSPSSLSASVGDRVTITCKASQDVSTAVAWYQQKPGQAPRLLIYWASTRHTGVPSRFSGSGSGTDFTLTISSLQPEDFALYYCQQHYSTPWTFGQGTKLEIKRTVAAPSVFIFPPSDEQLKSGTASVVCLLNNFYPREAKVQWKVDNALQSGNSQESVTEQDSKDSTYSLSSTLTLSKADYEKHKVYACEVTHQGLSSPVTKSFNRGEC
notes: Humanized IgG1 with VH4 and VK4; also called VH 4/VK4; VH 4/Vκ4
B1 was tested, and the Kd [1] was about 60 nM, the IC50 [2] was 0.2 µg/mL and the binding result (human FcγRI [3]) was “binds”. For the same binder, the “Relative IC50” value [4] was 0.212 ratio to chimeric 6B11 IgG1.

B2: NKTT320 (antibody, human IgG4 S228P, kappa)
heavy: not shown
light: DIQMTQSPSSLSASVGDRVTITCKASQDVSTAVAWYQQKPGQAPRLLIYWASTRHTGVPSRFSGSGSGTDFTLTISSLQPEDFALYYCQQHYSTPWTFGQGTKLEIKRTVAAPSVFIFPPSDEQLKSGTASVVCLLNNFYPREAKVQWKVDNALQSGNSQESVTEQDSKDSTYSLSSTLTLSKADYEKHKVYACEVTHQGLSSPVTKSFNRGEC
notes: also called modified IgG4 anti-iNKT mAb
B2: no binding (human FcγRI [5]).

B3: NKTT103 (6B11 chimeric IgG1 control antibody) (antibody)
heavy: not shown
light: DIVMTQSHKFMSTSVGDRVSITCKASQDVSTAVAWYQQKPGQSPKLLIYWASTRHTGVPDRFTGSGSGTDYTLTISSVQAEDLALYYCQQHYSTPWTFGGGTKLEIKRTVAAPSVFIFPPSDEQLKSGTASVVCLLNNFYPREAKVQWKVDNALQSGNSQESVTEQDSKDSTYSLSSTLTLSKADYEKHKVYACEVTHQGLSSPVTKSFNRGEC
notes: Murine 6B11 V regions on human IgG1; also called chimeric 6B11 IgG1; chimeric 6B11 mAb
In the case of B3, the binding result (human FcγRI [6]) is reported as “binds”, the binding result (complement component C1q) is reported as “binds” and the IC50 [2] is reported as 1 µg/mL.

B4: NKTT219 (antibody, human IgG1)
heavy: not shown
VL: DIVMTQSPSSLSASVGDRVTITCKASQDVSTAVAWYQQKPGQAPRLLIYWASTRHTGVPSRFSGSGSGTDFTLTISSLQPEDFALYYCQQHYSTPWTFGQGTKLEIK
modifications: non-fucosylated (afucosylated) carbohydrate in the Fc portion
notes: also called ADCC-enhanced humanized IgG1
B4 was tested, and the “fold improvement of binding” value (FcγRIII) was at most 100 fold.
